Measurements published in patent US7645871B2, “Tumor inhibition by modulating sprouty expression of activity” (Michigan State University, priority 2005, dated 2010).

Key:
PH3MT cells [1] = experiment: AG1478 inhibitor study, cell growth in 0.1% serum; format: cell-based, human
Protocol: For AG1478 inhibitor studies, cells were plated at a density of 5,000 cells per 60 mm-diameter dish in medium containing 0.1% serum, and were allowed to grow in the presence or absence of AG1478 at a concentration of 6 μM. Cell growth was monitored by measuring the number of cells every two days. Each experimental repetition included at least two replicates for each cell strain analyzed.
The activation of Ras oncogenes enables cellular growth in the absence of exogenous growth factors (Medema et al. (1993) Crit. Rev. Oncog. 4; Shields et al. (2000) Trends Cell. Biol. 10: 147-154). To determine if the activity of EGFR is necessary for the growth factor independence of H-Ras-transformed cells, measurements were made to determine the ability of PH3MT cells to grow in the presence of the AG1478 inhibitor, a specific inhibitor of EGFR tyrosine kinase activity (Levitzki et al. (1995) Science 267:1782-1788).

[2] = system: HRas-transformed cells (PH3MT); experiment: UV-induced apoptosis assay (AnnexinV-FITC, flow cytometry); format: cell-based, human; details: Ras-transformed cells treated with AG1478
Protocol: Apoptosis was detected by staining the cells with AnnexinV-FITC (BD Biosciences, San Jose, Calif.) according to manufacturer's recommendations. Briefly, cells were plated at a density of 2×10^5 cells/60 mm-dish. 16 hours after plating, the cells were irradiated with UV at a dose of 30-60 J/m^2 and incubated at 37° C. under normal culture conditions for varying time periods. Subsequently, the cells were collected, washed twice with AnnexinV binding buffer and incubated with AnnexinV-FITC at room temperature for 15 mins. The cells were also stained with propidium iodide (PI) to distinguish between live and dead cells. AnnexinV-FITC positive cells were determined by flow cytometry under standard conditions. Cells that stained positively for AnnexinV were considered apoptotic, while cells that were positive for both annexinV and PI were not considered apoptotic. All experiments were repeated at least three times. Ras protects NIH3T3 fibroblasts from apoptosis induced by DNA-damage (Franke et al. (2003) Oncogene 22:8983-98). Experiments were conducted to determine whether this effect was produced in an H-Ras-transformed cell strain (PH3MT), which has a higher expression of Spry2 compared to its parental cell strain (MSU-1.1) (FIG. 10A). In these experiments, both MSU-1.1 and PH3MT cells were plated at a density of 2×10^5 cells per dish and allowed to grow overnight. […]

PH3MT cells [3] = experiment: Tumorigenicity assay in athymic mice; format: in vivo; details: one million cells per site s.c., at least 6 months
Protocol: Cells were assayed for their ability to form tumors in athymic mice as described in Lou et al. (2005) Cancer Res. 65:1007-1017. The mice were examined weekly for tumor growth, and the tumors were removed when they reached 1 cm in diameter. In the absence of tumor formation six months after the injection, the mice were sacrificed.
When these same cell strains were compared for their ability to form tumors in athymic mice (Table 1), the control cell strains (PH3MT-VC and PH3MT-SC) formed 0.5 cm^3 tumors in 21 days (12/12 tumors formed per cell strain).

ERK = experiment: EGF-induced activation of ERK (pERK Western blot); format: cell-based, human; details: serum starved, EGF 100 ng/ml; vs scrambled RNAi strain PH3MT-SC
Protocol: Whole cell lysates were prepared as described in Lou et al. (2005) Cancer Res. 65:1007-1017. The protein content was quantified with Coomassie protein reagent from Pierce (Rockford, Ill.). Whole cell lysate (50 μg) was separated by SDS-PAGE. The protein was transferred to polyvinylidene fluoride membrane (Millipore, Billerica, Mass.), and immunoblotting was carried out using standard techniques. The signal was detected with the SuperSignal® reagent (Pierce). Antibodies against EGFR, ERK, pERK, c-Cbl, and H-Ras were purchased from Santa Cruz Biotechnology, Inc. (Santa Cruz, Calif.); Sprouty2 from Calbiochem (San Diego, Calif.); Pan-Ras from Cytoskeleton, Inc. (Denver, Colo.) and Ku80 from Serotec (Raleigh, N.C.). The Ku80 protein expression was used as a loading control.
To determine if the expression of Sprouty2 in PH3MT cells was associated with an increase in the activation of the RAS/MAPK cascade, EGF-induced activation of ERK was examined by Western blotting with a phosphorylation-specific antibody.

HRas/c-Cbl = experiment: Co-immunoprecipitation of c-Cbl with HRas; format: cell-based, human; details: PH3MT-2A3 vs control cells, anti-HRas immunoprecipitation
Protocol: Generally, in experiments employing immunoprecipitation, whole cell lysates (250 μg) were precleared with an appropriate IgG antibody for 30 mins., then incubated with an antibody specific to HRas for 2 hrs., followed by incubation with protein-G for 1 hr. to overnight at 4° C. When an Hras-agarose conjugate was used (Ras-cCbl/CIN85), the lysates were incubated with the agarose conjugate for 3 hrs. to overnight. The immunoprecipitated fraction was washed several times with lysis buffer and assayed by Western blotting. Experiments were generally conducted in replicate, e.g., experiments were repeated 3 to 4 times for those examining Ras-Spry2 and Ras-c-Cbl interactions, and two times for those examining the Ras-CIN85 interaction.

Rac1 = Rac1 activation assay (PAK-CRIB pull-down); format: cell-based, human; details: PH3MT-SC (endogenous Spry2) vs PH3MT-2A3
Protocol: Pull-down assays were performed using whole cell lysates (2 mg). The lysates were pulled down with PAK-Cdc42/Rac1 interacting region (CRIB)-conjugated beads from Cytoskeleton (Denver, Colo.) using methods provided by the manufacturer. […] These experiments were repeated 3 times in H-Ras-transformed cells and twice in immortalized fibroblasts.
To determine whether Spry2 plays a role in the activation of Rac1, a Rac1 activation assay was carried out to determine the level of activated Rac1 in control HRas-transformed cells (PH3MT-SC) and in HRas-transformed cells with down regulated Spry2 (PH3MT-2A3).

PH3MT cells [4] = experiment: Stress fiber staining (phalloidin); format: cell-based, human; details: PH3MT-2A3 vs PH3MT-SC
Protocol: Stress fibers were detected with Alexa-fluor 488 conjugated phalloidin stain from Invitrogen (Carlsbad, Calif.), which was used according to the manufacturer's instructions. Briefly, cells at log phase were fixed in 10% normal buffered formalin solution for 10 mins. The fixed cells were washed twice in phosphate buffered saline (PBS), and then treated with 0.1 Triton X-100 in PBS for 3-5 mins. at room temperature. Subsequently, the cells were incubated with blocking solution (1% BSA in PBS) for 20 mins. at room temperature. Finally, the cells were incubated with phalloidin stain for 30 mins. and analyzed by fluorescent microscopy.
One function of Rac1 is to inhibit stress fiber formation (Burridge et al. (2004) Cell 116(2): 167-179). […] This is consistent with the lower level of Rac1 activation in these cells (FIG. 12B). Accordingly, one assay that can be used to analyze the effects of a compound that affects Spry2 expression or activity is to assay stress fiber formation in the presence and absence or a compound in a cell that can express Rac1.

MDM2 = MDM2 level and Ser166 phosphorylation, Western blot; format: cell-based, human; details: PH3MT-2A3 vs PH3MT-SC
Protocol: (§1) Whole cell lysates were prepared as described in Lou et al. ((2005) Cancer Res. 65:1007-1017). Protein concentration was quantified with Coomasie protein reagent from Pierce (Rockford, Ill.). Whole cell lysates (50 μg) were separated by SDS-PAGE. The electrophoresed proteins were transferred to a polyvinylidene fluoride membrane (Millipore, Billerca, Mass.), and immunoblotted using standard techniques. Antibodies against pp 85, p85, c-Cbl, Mdm2, p53 and H-Ras were purchased form Santa Cruz (Santa Cruz, Calif.); Spry2 from Calbiochem (San Diego, Calif.); pAkt and Akt from Cell Signaling (Danver, Mass.) and Ku80 from Serotec (Raleigh, N.C.). Ku80 protein was used as a loading control. Label signals were detected with the SuperSignal reagent (Pierce, Rockford, Ill.).
(§2) The MDM2/p53 pathway plays a critical role in UV-induced apoptosis (Lakin et al. (1999) Oncogene 18(53):7644-7655). Akt phosphorylates MDM2 on serine residue 166, resulting in the stabilization of MDM2 (Ogawara et al. (2002) J. Biol. Chem., 277(24):21843-21850). This enhances the ubiquitination of p53 by MDM2, which is followed by degradation of the p53. […] To test this proposal, the amount of MDM2 phosphorylated at Ser166 was determined in a cell strain with down regulated Spry2 (PH3MT-2A3) and in a control cell strain (PH3MT-SC). […]

p53 = p53 level, Western blot; format: cell-based, human; details: PH3MT-2A3 vs PH3MT-SC
Protocol: as §1, §2

For `COc1cc2ncnc(Nc3cccc(Cl)c3)c2cc1OC` [AG1478], the “ability of cells to grow in medium with reduced serum” value (PH3MT cells [1]; PH3MT cells, 0.1% serum, AG1478 6 μM) was “decrease in the ability of H-Ras-transformed cells to grow in medium with reduced serum”, the “decrease in growth compared with effect on MSU-1.1 cells” value (PH3MT cells [1]; PH3MT vs MSU-1.1, AG1478 6 μM, p<0.001) was “significantly greater than the corresponding effect of the same inhibitor on the MSU-1.1 cells” and the “number of cells undergoing apoptosis in response to UV radiation” value [2] was “increased the number of Ras-transformed cells undergoing apoptosis”.

B1: Spry2-shRNA-5: Sprouty2-specific shRNA construct targeting position 492 of the Spry2 coding region; PH3MT-5A3 cell strain was derived with it (nucleic acid)
chain: GATCCCCGCCACTGAGCAAGGAAGATTTCAAGAGAATCTTCCTTGCTCAGTGGCTTTTTGGAAA
In the case of B1, the “Tumor incidence (ratio of tumors formed to sites injected)” value (PH3MT cells [3]; cell strain PH3MT-5A3 (derived with Spry2-shRNA-5)) is reported as 0/12.

B2: Spry2-shRNA-2: Sprouty2-specific shRNA construct targeting position 399 of the Spry2 coding region; PH3MT-2A3 and PH3MT-2B9 cell strains were derived with it (nucleic acid)
chain: GATCCCCGAGACTGCTAGGATCATCCTTCAAGAGAGGAGTGATCCTAGCAGCTCTTTTTGGAAA
With B2 the “EGF-induced ERK activation” value (ERK) was “decreased levels of ERK activation”, the “Tumor incidence (ratio of tumors formed to sites injected)” value (PH3MT cells [3]; cell strain PH3MT-2A3 (derived with Spry2-shRNA-2)) was 0/12 and the “Tumor incidence (ratio of tumors formed to sites injected)” value (PH3MT cells [3]; cell strain PH3MT-2B9 (derived with Spry2-shRNA-2)) was 0/12. The “binding of endogenous c-Cbl to HRas” value (HRas/c-Cbl) was “abolished”, the “level of active Rac1” value (Rac1) was “significantly higher level of active Rac1, compared to cell strain with down-regulated Spry2 expression” and the stress fiber formation (PH3MT cells [4]) was “more pronounced stress fibers”. For the same molecule, the “level of MDM2 following UV treatment” value (MDM2) was “decrease in the level of MDM2 following UV treatment” and the “level of p53 following UV treatment” value (p53) was “higher”.
